Source: publication PMC2700083, “A covalent peptide inhibitor of RGS4 identified in a focused one-bead, one compound library screen” (BMC Pharmacology, 2009)
Like-named read-outs stand apart in the source and are kept apart here. Bridges are numbered along the chain shown (N, C = ends).

Key:
Test in all cases: FCPIA (flow cytometry protein interaction assay, Luminex beads); dose curves of 5nd on RGS4 cysteine mutants (5 nM, or 20 nM for the mutants with no Cys in the domain or the C-terminus) and labeled Gαo; curves constrained to 100% and 0%
[1] = target: MBP-RGS4Δ51N -7C mutant (all 7 cysteines removed) (UniProt P49799)
[2] = target: MBP-RGS4Δ51N A132C in the -7C (UniProt P49799)
[3] = target: MBP-RGS4Δ51N A148C in the -7C (UniProt P49799)
[4] = target: MBP-RGS4Δ51N A71C in the -7C (UniProt P49799)
[5] = target: MBP-RGS4Δ51N A95C in the -7C (UniProt P49799)
[6] = target: MBP-RGS4Δ51N with no Cys in the C-terminus (UniProt P49799)
[7] = target: MBP-RGS4Δ51N with no Cys in the RGS domain (UniProt P49799)
[8] = target: MBP-RGS4Δ51N with no Cys in the C-terminus (UniProt P49799); remark: listed apart in the source

B1: Peptide 5nd (Tyr-Trp-c[Cys-Lys-Gly-Leu-Cys]-Lys-NH2, S-S) (peptide)
peptide: H-YWCKGLCK-NH2
modifications: disulfide 3-7
SMILES: CC(C)C[C@@H]1NC(=O)CNC(=O)[C@H](CCCCN)NC(=O)[C@@H](NC(=O)[C@H](Cc2c[nH]c3ccccc23)NC(=O)[C@@H](N)Cc2ccc(O)cc2)CSSC[C@@H](C(=O)N[C@@H](CCCCN)C(N)=O)NC1=O
For B1, the logIC50 [1] was -3.24 log M, the logIC50 [2] was -3.41 log M and the logIC50 [3] was -3.51 log M. It also gave a logIC50 [4] of -3.2 log M, a logIC50 [5] of -3.58 log M and a logIC50 [6] of -4.39 log M. For the same binder, the logIC50 [7] was -3.8 log M and the logIC50 [8] was -4.5 log M.
